Here are results for 36 variants from the Human Domainome abundance scans (Beltran et al. 2025).

± gives the uncertainty stated by the source.

B1: Far upstream element-binding protein 3, residues 75 to 150; numbered along this chain, Q96I24 (parent)
chain: RTVITEEFKVPDKMVGFIIGRGGEQISRIQAESGCKIQIASESSGIPERPCVLTGTPESIEQAKRLLGQIVDRCRN

The data set covers variants of B1. Description: abundance fitness (aPCA) (normalised: wild type 0, dead -1); higher = more abundant; growth selection in yeast, the domain comes from the species named. Particulars: Homo sapiens.
For the variant RTVITEEFKVPDKMVGFIIGRGGEQISRIQAESGCKIQFASESSGIPERPCVLTGTPESIEQAKRLLGQIVDRCRN [I39F], the abundance fitness is -0.114 ± 0.052. Regarding RTVITEEFKVPDKMVGFIIGRGGEQISRIQAESGCKIQLASESSGIPERPCVLTGTPESIEQAKRLLGQIVDRCRN [I39L], the abundance fitness was -0.107 ± 0.031. Under RTVITEEFKVPDKMVGFIIGRGGEQISRIQAESGCKIQCASESSGIPERPCVLTGTPESIEQAKRLLGQIVDRCRN [I39C] stands -0.152 ± 0.044. Under RTVITEEFKVPDKMVGFIIGRGGEQISRIQAESGCKIQPASESSGIPERPCVLTGTPESIEQAKRLLGQIVDRCRN [I39P] stands -0.394 ± 0.044; under RTVITEEFKVPDKMVGFIIGRGGEQISRIQAESGCKIQWASESSGIPERPCVLTGTPESIEQAKRLLGQIVDRCRN [I39W], -0.159 ± 0.031. Next, RTVITEEFKVPDKMVGFIIGRGGEQISRIQAESGCKIQAASESSGIPERPCVLTGTPESIEQAKRLLGQIVDRCRN [I39A]: -0.437 ± 0.036; RTVITEEFKVPDKMVGFIIGRGGEQISRIQAESGCKIQRASESSGIPERPCVLTGTPESIEQAKRLLGQIVDRCRN [I39R]: -0.526 ± 0.028.

As to RTVITEEFKVPDKMVGFIIGRGGEQISRIQAESGCKIQYASESSGIPERPCVLTGTPESIEQAKRLLGQIVDRCRN [I39Y], the abundance fitness is -0.327 ± 0.06.

For the variant RTVITEEFKVPDKMVGFIIGRGGEQISRIQAESGCKIQEASESSGIPERPCVLTGTPESIEQAKRLLGQIVDRCRN [I39E], the abundance fitness was -0.502 ± 0.037.

Regarding RTVITEEFKVPDKMVGFIIGRGGEQISRIQAESGCKIQGASESSGIPERPCVLTGTPESIEQAKRLLGQIVDRCRN [I39G], the abundance fitness is -0.48 ± 0.027. For the variant RTVITEEFKVPDKMVGFIIGRGGEQISRIQAESGCKIQHASESSGIPERPCVLTGTPESIEQAKRLLGQIVDRCRN [I39H], the abundance fitness was -0.44 ± 0.066. As to RTVITEEFKVPDKMVGFIIGRGGEQISRIQAESGCKIQQASESSGIPERPCVLTGTPESIEQAKRLLGQIVDRCRN [I39Q], the abundance fitness was -0.399 ± 0.041. Under RTVITEEFKVPDKMVGFIIGRGGEQISRIQAESGCKIQKASESSGIPERPCVLTGTPESIEQAKRLLGQIVDRCRN [I39K] stands -0.614 ± 0.046; under RTVITEEFKVPDKMVGFIIGRGGEQISRIQAESGCKIQVASESSGIPERPCVLTGTPESIEQAKRLLGQIVDRCRN [I39V], -0.027 ± 0.029. As to RTVITEEFKVPDKMVGFIIGRGGEQISRIQAESGCKIQMASESSGIPERPCVLTGTPESIEQAKRLLGQIVDRCRN [I39M], the abundance fitness is -0.067 ± 0.035.

Take RTVITEEFKVPDKMVGFIIGRGGEQISRIQAESGCKIQSASESSGIPERPCVLTGTPESIEQAKRLLGQIVDRCRN [I39S]: the abundance fitness is -0.485 ± 0.037. Under RTVITEEFKVPDKMVGFIIGRGGEQISRIQAESGCKIQTASESSGIPERPCVLTGTPESIEQAKRLLGQIVDRCRN [I39T] stands -0.321 ± 0.039; under RTVITEEFKVPDKMVGFIIGRGGEQISRIQAESGCKIQIISESSGIPERPCVLTGTPESIEQAKRLLGQIVDRCRN [A40I], -0.036 ± 0.07; under RTVITEEFKVPDKMVGFIIGRGGEQISRIQAESGCKIQIYSESSGIPERPCVLTGTPESIEQAKRLLGQIVDRCRN [A40Y], -0.112 ± 0.062. For RTVITEEFKVPDKMVGFIIGRGGEQISRIQAESGCKIQIVSESSGIPERPCVLTGTPESIEQAKRLLGQIVDRCRN [A40V], the abundance fitness is -0.094 ± 0.029. As to RTVITEEFKVPDKMVGFIIGRGGEQISRIQAESGCKIQIWSESSGIPERPCVLTGTPESIEQAKRLLGQIVDRCRN [A40W], the abundance fitness was -0.1 ± 0.033. Next, RTVITEEFKVPDKMVGFIIGRGGEQISRIQAESGCKIQINSESSGIPERPCVLTGTPESIEQAKRLLGQIVDRCRN [A40N]: -0.076 ± 0.057.

RTVITEEFKVPDKMVGFIIGRGGEQISRIQAESGCKIQITSESSGIPERPCVLTGTPESIEQAKRLLGQIVDRCRN [A40T]: the abundance fitness was -0.04 ± 0.038. Under RTVITEEFKVPDKMVGFIIGRGGEQISRIQAESGCKIQILSESSGIPERPCVLTGTPESIEQAKRLLGQIVDRCRN [A40L] stands -0.038 ± 0.03; under RTVITEEFKVPDKMVGFIIGRGGEQISRIQAESGCKIQIPSESSGIPERPCVLTGTPESIEQAKRLLGQIVDRCRN [A40P], -0.024 ± 0.04; under RTVITEEFKVPDKMVGFIIGRGGEQISRIQAESGCKIQIFSESSGIPERPCVLTGTPESIEQAKRLLGQIVDRCRN [A40F], 0.013 ± 0.057. For the variant RTVITEEFKVPDKMVGFIIGRGGEQISRIQAESGCKIQIDSESSGIPERPCVLTGTPESIEQAKRLLGQIVDRCRN [A40D], the abundance fitness came to 0.002 ± 0.043. Take RTVITEEFKVPDKMVGFIIGRGGEQISRIQAESGCKIQIQSESSGIPERPCVLTGTPESIEQAKRLLGQIVDRCRN [A40Q]: the abundance fitness was 0.044 ± 0.039.

Consider RTVITEEFKVPDKMVGFIIGRGGEQISRIQAESGCKIQIHSESSGIPERPCVLTGTPESIEQAKRLLGQIVDRCRN [A40H], for which the abundance fitness was -0.032 ± 0.058. As for RTVITEEFKVPDKMVGFIIGRGGEQISRIQAESGCKIQIMSESSGIPERPCVLTGTPESIEQAKRLLGQIVDRCRN [A40M], the abundance fitness was -0.063 ± 0.04. Turning to RTVITEEFKVPDKMVGFIIGRGGEQISRIQAESGCKIQIGSESSGIPERPCVLTGTPESIEQAKRLLGQIVDRCRN [A40G], the abundance fitness is -0.018 ± 0.025. For the variant RTVITEEFKVPDKMVGFIIGRGGEQISRIQAESGCKIQIKSESSGIPERPCVLTGTPESIEQAKRLLGQIVDRCRN [A40K], the abundance fitness was -0.024 ± 0.037. On to RTVITEEFKVPDKMVGFIIGRGGEQISRIQAESGCKIQIAGESSGIPERPCVLTGTPESIEQAKRLLGQIVDRCRN [S41G], for which the abundance fitness is -0.015 ± 0.026. Next, RTVITEEFKVPDKMVGFIIGRGGEQISRIQAESGCKIQIAKESSGIPERPCVLTGTPESIEQAKRLLGQIVDRCRN [S41K]: 0.058 ± 0.04. With RTVITEEFKVPDKMVGFIIGRGGEQISRIQAESGCKIQIAIESSGIPERPCVLTGTPESIEQAKRLLGQIVDRCRN [S41I], the abundance fitness was -0.092 ± 0.07. For the variant RTVITEEFKVPDKMVGFIIGRGGEQISRIQAESGCKIQIAVESSGIPERPCVLTGTPESIEQAKRLLGQIVDRCRN [S41V], the abundance fitness was -0.089 ± 0.03.
